Assay results: patent publication US20230408517A1 (BIO TECHNE, published 2023)
Read-outs that look alike come from different tables or passages of the source.

B1: 1035211 (antibody, V domains shown)
VH: QVQLQQSGAELARPGASVKMSCKASGYTFTNYTMHWVKQRPGQGLEWIGYINPSSGYTNYNQKFKDKATLTADKSSSTAYMQLSSLTSEDSAVYYCARRNPLYAMDYWGQGTSVTVSS
VL: DIKMTQSPSSMYASLGERVTITCKASQDINSYLNWFQQKPGKSPKTLIYRANRLVDGVPSRFSGSGSGQDYSLTISSLEFEDMGIYYCLQYDEFPYTFGGGTKLEIK
B2: 1035709 (antibody, V domains shown)
VH: EVQLQQSGPELVKPGASVKISCKTSGYTFTEYTMHWVKQSHGKSLEWIGGINPNIVDTGYNQKFKGKATLTVDKSSSTAYMELRSLTSEDSAVYYCARDGYPLYYAMDYWGQGTSVTVSS
VL: DIQMTQSPSSLSASLGERVSLTCRASQEISGYLSWLQQKPDGTIKRLIYAASTLDSGVPKRFSGSRSGSDYSLTISSLESEDFADYYCLQYASYPWTFGGGTKLEIK
B3: 1035762 (antibody, V domains shown)
VH: EVQLQQSGPELVKPGASVKISCKTSGYTFTEYTMHWVKQSHGKSLEWIGGINPNNGDTGYNQKFKGKATLTVDKSSSTAYMELRSLTFEDSAVYYCARDGYPLYYAMDYWGQGTSVTVSS
VL: DIQMTQSPSSLSASLGERVSLTCRASQEISGYLCWLQQKPDGTIKRLIYAASTLDSAVPKRFSGSRSGSDYSLTISSLESEDFADFYCLQYASYPWTFGGGTKLEIK
B4: 1035753 (antibody, V domains shown)
VH: EVQLQQSGAELVRPGALVKLSCKASGFNIKDYYMHWVKQRPEQGLEWIGWIDPENGNTIYDPKFLGKASITADTSSNTAYLQLSSLTSEDTAVYYCARWYYYAMDSWGQGTSVTVSS
VL: DIQMTQTTSSLSASLGDRVTISCSASQGISNYLNWYQQKPDGTVKLLIYYTSSLHSGVPSRFSGSGSGTDYSLTISNLEPEDIATYYCQQYSKLPFTFGGGTNLEMK
B5: 1035755 (antibody, V domains shown)
VH: EVQLQQSGAELVRPGALVKLSCKASGFNIKDYYMHWVKQRPEQGLEWIGWIDPENGNSIYDPKFQGKASITADTSSNTAYLQLSSLTSEDTAVYYCATPSATSYFDYWGQGTTLTVSS
VL: QIVLTQSPAIMSASPGEKVTISCSASSSVSYMYWYQQKPGSSPKPWIYRTSNLASGVPARFSGSGSGTSYSLTISSMEAEDAATYYCQQYHSYPYMYTFGGGTKLEIK
B6: 1035740 (antibody, V domains shown)
VH: EVLLQQSGPELVKPGASVKIPCKASGYTFTDYNMDWVKQSHGKSLEWIGDINPNNGFTIYNQKFKGKATLTVDKSSSTAYMELRSLTSEDTAVYYCAREGYGNYFDYWGQGTTLTVSS
VL: DVLLTQSPAILSVSPGERVSFSCRASQSIGTSLHWYQQRTNGSPRLLIKYVSESISGIPSRFSGSGSGTDFTLSINSVESEDIADYYCQQSSSWPTTFGAGTKLELK

What was measured:
[1] = biological target: T1, recombinant monomeric SARS-CoV-2 S1 protein, his-tagged (SARS-CoV-2, UniProt P0DTC2 16-681); assay: flow cytometry, blocking of binding to hACE-2 cells
T1 construct: domain: S1

[2] = biological target: T2, recombinant his-tagged homotrimeric SARS-CoV-2 spike protein (SARS-CoV-2, UniProt P0DTC2 16-1211); assay: as above
[3] = biological target: T3, recombinant monomeric SARS-CoV-1 S1 protein (SARS-CoV-1, UniProt P59594 14-667); assay: as above
[4] = biological target: T4, SARS-CoV spike RBD (R306-F527), C-terminal 6-His (SARS-CoV, UniProt P59594 306-527); assay: as above
[5] = biological target: T1, recombinant monomeric SARS-CoV-2 S1 …; assay: as above; remark: listed apart in the source
[6] = biological target: T2, recombinant his-tagged homotrimeric …; assay: as above; remark: listed apart in the source
[7] = biological target: T3, recombinant monomeric SARS-CoV-1 S1 …; assay: as above; remark: listed apart in the source
[8] = biological target: T4, SARS-CoV spike RBD (R306-F527), …; assay: as above; remark: listed apart in the source
[9] = biological target: T3, recombinant monomeric SARS-CoV-1 S1 …; assay: antigen-down ELISA, coated SARS-CoV-1 S1 titrated, Ab 1 µg/mL
[10] = biological target: T4, SARS-CoV spike RBD (R306-F527), …; assay: antigen-down ELISA, coated SARS-CoV-1 S1 RBD titrated, Ab 1 µg/mL
[11] = biological target: T3, recombinant monomeric SARS-CoV-1 S1 …; assay: antigen-down ELISA, coated SARS-CoV-1 S1 titrated, Ab 1 µg/mL; remark: listed apart in the source
[12] = biological target: T5, BSA (bovine, UniProt P02769); assay: dipstick, adsorbed protein spots, Ab 10 µg/mL, GAM-AuNP
T5 construct: also called bovine serum albumin

[13] = biological target: T4, SARS-CoV spike RBD (R306-F527), …; assay: antigen-down ELISA, coated SARS-CoV-1 S1 RBD titrated, Ab 1 µg/mL; remark: listed apart in the source
[14] = biological target: T3, recombinant monomeric SARS-CoV-1 S1 …; assay: antigen-down ELISA, coated SARS-CoV-1 S1 titrated, Ab 1 µg/mL; remark: listed apart in the source
[15] = biological target: T5, BSA; assay: dipstick, adsorbed protein spots, Ab 10 µg/mL, GAM-AuNP; remark: listed apart in the source
[16] = biological target: T4, SARS-CoV spike RBD (R306-F527), …; assay: antigen-down ELISA, coated SARS-CoV-1 S1 RBD titrated, Ab 1 µg/mL; remark: listed apart in the source
[17] = biological target: T3, recombinant monomeric SARS-CoV-1 S1 …; assay: antigen-down ELISA, coated SARS-CoV-1 S1 titrated, Ab 1 µg/mL; remark: listed apart in the source
[18] = biological target: T5, BSA; assay: dipstick, adsorbed protein spots, Ab 10 µg/mL, GAM-AuNP; remark: listed apart in the source
[19] = biological target: T4, SARS-CoV spike RBD (R306-F527), …; assay: antigen-down ELISA, coated SARS-CoV-1 S1 RBD titrated, Ab 1 µg/mL; remark: listed apart in the source
[20] = biological target: T3, recombinant monomeric SARS-CoV-1 S1 …; assay: antigen-down ELISA, coated SARS-CoV-1 S1 titrated, Ab 1 µg/mL; remark: listed apart in the source
[21] = biological target: T4, SARS-CoV spike RBD (R306-F527), …; assay: antigen-down ELISA, coated SARS-CoV-1 S1 RBD titrated, Ab 1 µg/mL; remark: listed apart in the source
[22] = biological target: T4, SARS-CoV spike RBD (R306-F527), …; assay: lateral flow NC50, RBD-AuNP vs immobilised ACE2
[23] = biological target: T5, BSA; assay: dipstick, adsorbed protein spots, Ab 10 µg/mL, GAM-AuNP; remark: listed apart in the source

T5 sequence (P02769 25-607 limits assumed): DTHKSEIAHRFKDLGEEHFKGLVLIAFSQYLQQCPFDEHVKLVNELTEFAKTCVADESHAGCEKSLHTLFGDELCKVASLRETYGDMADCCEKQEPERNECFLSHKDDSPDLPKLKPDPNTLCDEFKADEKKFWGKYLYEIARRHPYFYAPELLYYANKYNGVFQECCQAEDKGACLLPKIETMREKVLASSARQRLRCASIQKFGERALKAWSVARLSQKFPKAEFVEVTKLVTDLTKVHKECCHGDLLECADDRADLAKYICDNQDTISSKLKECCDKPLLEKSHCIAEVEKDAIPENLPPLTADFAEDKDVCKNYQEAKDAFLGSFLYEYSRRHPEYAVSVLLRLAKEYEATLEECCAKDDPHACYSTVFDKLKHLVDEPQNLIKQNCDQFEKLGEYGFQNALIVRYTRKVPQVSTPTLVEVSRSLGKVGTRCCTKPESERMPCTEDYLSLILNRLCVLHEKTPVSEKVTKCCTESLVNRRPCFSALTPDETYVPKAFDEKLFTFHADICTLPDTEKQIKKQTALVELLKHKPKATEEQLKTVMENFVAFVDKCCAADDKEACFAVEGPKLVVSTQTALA

Binder	percent blocking [1] [%]	percent blocking [2] [%]	percent blocking [3] [%]	percent blocking [4] [%]	percent blocking [5] [%]	percent blocking [6] [%]	percent blocking [7] [%]	percent blocking [8] [%]	also measured
B1	88.7	78.6	0	0.1	88.7	78.6	0	0.1	binding result [9]: no binding (tested: 400 ng coated (axis)); binding result [10]: no binding (tested: 400 ng coated (axis))
B2	93.6	96.5	0	0	93.6	96.5	0	0	binding result [11]: no binding (tested: 400 ng coated (axis)); binding result [12]: no binding (tested: 10 µg/mL); binding result [13]: no binding (tested: 400 ng coated (axis))
B3	93.2	93	0	0	93.2	93	0	0	binding result [14]: no binding (tested: 400 ng coated (axis)); binding result [15]: no binding (tested: 10 µg/mL); binding result [16]: no binding (tested: 400 ng coated (axis))
B4	94	96.6	0	0	94	96.6	0	0	binding result [17]: no binding (tested: 400 ng coated (axis)); binding result [18]: no binding (tested: 10 µg/mL); binding result [19]: no binding (tested: 400 ng coated (axis))
B5	93.3	84.6	1.3	0	93.3	84.6	1.3	0	binding result [20]: no binding (tested: 400 ng coated (axis)); binding result [21]: no binding (tested: 400 ng coated (axis))
B6	93.4	96.5	92.4	98.8	93.4	96.5	92.4	98.8	IC50 [22]: 0.84 µg/mL; binding result [23]: no binding (tested: 10 µg/mL)
